Test results: US20140087995A1 (published 2014)
Numbered stars: 1 amine (or outer) side, 2 acyl side, 3 side chain; on linkers, the order of the positions; unused ones are H or OH. Bridge positions count the residues as written; N and C are the ends. Side chains are listed from the residue outwards. Ends that are not written are not given here. * marks the point of attachment. C20 diacid = O=C(O)CCCCCCCCCCCCCCCCCCC(=O)*; γGlu = O=C(O)[C@H](CCC(=O)[*:2])N[*:1]; AEEA = NCCOCCOCC(=O)O

B1: N^ε1-[2-[2-[2-[[(4S)-4-carboxy-4-(19-carboxynonadecanoylamino)butanoyl]amino]ethoxy]ethoxy]acetyl]-[Arg17,Pro21,Pro27,Pro31]-h-amylin (peptide)
peptide: K([AEEA-γGlu-C20 diacid])CNTATCATQRLANFLRHSSPNFGAIPSSTPVGSNTY-NH2
modifications: disulfide 2-7; N-terminus assumed
SMILES: CC[C@H](C)[C@H](NC(=O)[C@H](C)NC(=O)CNC(=O)[C@H](Cc1ccccc1)NC(=O)[C@H](CC(N)=O)NC(=O)[C@@H]1CCCN1C(=O)[C@H](CO)NC(=O)[C@H](CO)NC(=O)[C@H](Cc1c[nH]cn1)NC(=O)[C@H](CCCNC(=N)N)NC(=O)[C@H](CC(C)C)NC(=O)[C@H](Cc1ccccc1)NC(=O)[C@H](CC(N)=O)NC(=O)[C@H](C)NC(=O)[C@H](CC(C)C)NC(=O)[C@H](CCCNC(=N)N)NC(=O)[C@H](CCC(N)=O)NC(=O)[C@@H](NC(=O)[C@H](C)NC(=O)[C@@H]1CSSC[C@H](NC(=O)[C@@H](N)CCCCNC(=O)COCCOCCNC(=O)CC[C@H](NC(=O)CCCCCCCCCCCCCCCCCCC(=O)O)C(=O)O)C(=O)N[C@@H](CC(N)=O)C(=O)N[C@@H]([C@@H](C)O)C(=O)N[C@@H](C)C(=O)N[C@@H]([C@@H](C)O)C(=O)N1)[C@@H](C)O)C(=O)N1CCC[C@H]1C(=O)N[C@@H](CO)C(=O)N[C@@H](CO)C(=O)N[C@H](C(=O)N1CCC[C@H]1C(=O)N[C@H](C(=O)NCC(=O)N[C@@H](CO)C(=O)N[C@@H](CC(N)=O)C(=O)N[C@H](C(=O)N[C@@H](Cc1ccc(O)cc1)C(N)=O)[C@@H](C)O)C(C)C)[C@@H](C)O
notes: Analogue of human amylin; also called compound 49
B2: N^ε1-[2-[2-[2-[[(4S)-4-carboxy-4-(19-carboxynonadecanoylamino)butanoyl]amino]ethoxy]ethoxy]acetyl]-[Arg17,Pro21,Pro27,Pro34,His35]-h-amylin (peptide)
peptide: K([AEEA-γGlu-C20 diacid])CNTATCATQRLANFLRHSSPNFGAIPSSTNVGPHTY-NH2
modifications: disulfide 2-7; N-terminus assumed
SMILES: CC[C@H](C)[C@H](NC(=O)[C@H](C)NC(=O)CNC(=O)[C@H](Cc1ccccc1)NC(=O)[C@H](CC(N)=O)NC(=O)[C@@H]1CCCN1C(=O)[C@H](CO)NC(=O)[C@H](CO)NC(=O)[C@H](Cc1c[nH]cn1)NC(=O)[C@H](CCCNC(=N)N)NC(=O)[C@H](CC(C)C)NC(=O)[C@H](Cc1ccccc1)NC(=O)[C@H](CC(N)=O)NC(=O)[C@H](C)NC(=O)[C@H](CC(C)C)NC(=O)[C@H](CCCNC(=N)N)NC(=O)[C@H](CCC(N)=O)NC(=O)[C@@H](NC(=O)[C@H](C)NC(=O)[C@@H]1CSSC[C@H](NC(=O)[C@@H](N)CCCCNC(=O)COCCOCCNC(=O)CC[C@H](NC(=O)CCCCCCCCCCCCCCCCCCC(=O)O)C(=O)O)C(=O)N[C@@H](CC(N)=O)C(=O)N[C@@H]([C@@H](C)O)C(=O)N[C@@H](C)C(=O)N[C@@H]([C@@H](C)O)C(=O)N1)[C@@H](C)O)C(=O)N1CCC[C@H]1C(=O)N[C@@H](CO)C(=O)N[C@@H](CO)C(=O)N[C@H](C(=O)N[C@@H](CC(N)=O)C(=O)N[C@H](C(=O)NCC(=O)N1CCC[C@H]1C(=O)N[C@@H](Cc1c[nH]cn1)C(=O)N[C@H](C(=O)N[C@@H](Cc1ccc(O)cc1)C(N)=O)[C@@H](C)O)C(C)C)[C@@H](C)O
notes: Analogue of human amylin; also called compound 58
B3: N^ε1-[2-[2-[2-[[(4S)-4-carboxy-4-(19-carboxynonadecanoylamino)butanoyl]amino]ethoxy]ethoxy]acetyl]-[Arg17,Pro21,Pro27,Pro34]-h-amylin (peptide)
peptide: K([AEEA-γGlu-C20 diacid])CNTATCATQRLANFLRHSSPNFGAIPSSTNVGPNTY-NH2
modifications: disulfide 2-7; N-terminus assumed
SMILES: CC[C@H](C)[C@H](NC(=O)[C@H](C)NC(=O)CNC(=O)[C@H](Cc1ccccc1)NC(=O)[C@H](CC(N)=O)NC(=O)[C@@H]1CCCN1C(=O)[C@H](CO)NC(=O)[C@H](CO)NC(=O)[C@H](Cc1c[nH]cn1)NC(=O)[C@H](CCCNC(=N)N)NC(=O)[C@H](CC(C)C)NC(=O)[C@H](Cc1ccccc1)NC(=O)[C@H](CC(N)=O)NC(=O)[C@H](C)NC(=O)[C@H](CC(C)C)NC(=O)[C@H](CCCNC(=N)N)NC(=O)[C@H](CCC(N)=O)NC(=O)[C@@H](NC(=O)[C@H](C)NC(=O)[C@@H]1CSSC[C@H](NC(=O)[C@@H](N)CCCCNC(=O)COCCOCCNC(=O)CC[C@H](NC(=O)CCCCCCCCCCCCCCCCCCC(=O)O)C(=O)O)C(=O)N[C@@H](CC(N)=O)C(=O)N[C@@H]([C@@H](C)O)C(=O)N[C@@H](C)C(=O)N[C@@H]([C@@H](C)O)C(=O)N1)[C@@H](C)O)C(=O)N1CCC[C@H]1C(=O)N[C@@H](CO)C(=O)N[C@@H](CO)C(=O)N[C@H](C(=O)N[C@@H](CC(N)=O)C(=O)N[C@H](C(=O)NCC(=O)N1CCC[C@H]1C(=O)N[C@@H](CC(N)=O)C(=O)N[C@H](C(=O)N[C@@H](Cc1ccc(O)cc1)C(N)=O)[C@@H](C)O)C(C)C)[C@@H](C)O
notes: Analogue of human amylin; also called compound 50
B4: N^ε1-[2-[2-[2-[[(4S)-4-carboxy-4-(19-carboxynonadecanoylamino)butanoyl]amino]ethoxy]ethoxy]acetyl]-[Gly14,Arg17,Pro21,Pro27,Pro31]-h-amylin (peptide)
peptide: K([AEEA-γGlu-C20 diacid])CNTATCATQRLAGFLRHSSPNFGAIPSSTPVGSNTY-NH2
modifications: disulfide 2-7; N-terminus assumed
SMILES: CC[C@H](C)[C@H](NC(=O)[C@H](C)NC(=O)CNC(=O)[C@H](Cc1ccccc1)NC(=O)[C@H](CC(N)=O)NC(=O)[C@@H]1CCCN1C(=O)[C@H](CO)NC(=O)[C@H](CO)NC(=O)[C@H](Cc1c[nH]cn1)NC(=O)[C@H](CCCNC(=N)N)NC(=O)[C@H](CC(C)C)NC(=O)[C@H](Cc1ccccc1)NC(=O)CNC(=O)[C@H](C)NC(=O)[C@H](CC(C)C)NC(=O)[C@H](CCCNC(=N)N)NC(=O)[C@H](CCC(N)=O)NC(=O)[C@@H](NC(=O)[C@H](C)NC(=O)[C@@H]1CSSC[C@H](NC(=O)[C@@H](N)CCCCNC(=O)COCCOCCNC(=O)CC[C@H](NC(=O)CCCCCCCCCCCCCCCCCCC(=O)O)C(=O)O)C(=O)N[C@@H](CC(N)=O)C(=O)N[C@@H]([C@@H](C)O)C(=O)N[C@@H](C)C(=O)N[C@@H]([C@@H](C)O)C(=O)N1)[C@@H](C)O)C(=O)N1CCC[C@H]1C(=O)N[C@@H](CO)C(=O)N[C@@H](CO)C(=O)N[C@H](C(=O)N1CCC[C@H]1C(=O)N[C@H](C(=O)NCC(=O)N[C@@H](CO)C(=O)N[C@@H](CC(N)=O)C(=O)N[C@H](C(=O)N[C@@H](Cc1ccc(O)cc1)C(N)=O)[C@@H](C)O)C(C)C)[C@@H](C)O
notes: Analogue of human amylin; also called compound 71

Experiments:
[1] = target: T1, rat amylin receptor (rat calcitonin receptor + rat RAMP 3) (rat, UniProt P32214 25-516; Q9JJ73 23-147); experiment: SPA competition with 125I-rat amylin, membranes of BHK cells with rat CTR + rat RAMP3 (Assay VI)
T1 construct: whole, on cells; Used as membranes prepared from BHK tk'ts 13 cells transiently transfected with rat calcitonin receptor and rat RAMP 3 (Assay VI); also called rAmylin-R; rat amylin 3(a) receptor
T1 sequence (looked up) 1: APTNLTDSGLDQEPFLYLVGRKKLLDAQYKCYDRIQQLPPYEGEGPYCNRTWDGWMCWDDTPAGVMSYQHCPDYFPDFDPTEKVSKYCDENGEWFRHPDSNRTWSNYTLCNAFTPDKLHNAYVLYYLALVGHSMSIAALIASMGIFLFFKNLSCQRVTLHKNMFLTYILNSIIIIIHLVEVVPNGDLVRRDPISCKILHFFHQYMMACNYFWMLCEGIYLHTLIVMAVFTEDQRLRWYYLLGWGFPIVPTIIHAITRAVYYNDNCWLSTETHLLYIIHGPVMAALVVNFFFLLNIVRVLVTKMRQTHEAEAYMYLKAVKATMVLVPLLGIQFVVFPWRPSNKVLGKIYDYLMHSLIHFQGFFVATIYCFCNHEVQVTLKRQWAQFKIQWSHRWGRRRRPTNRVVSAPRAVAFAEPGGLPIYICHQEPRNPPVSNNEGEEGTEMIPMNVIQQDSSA
T1 sequence (looked up) 2: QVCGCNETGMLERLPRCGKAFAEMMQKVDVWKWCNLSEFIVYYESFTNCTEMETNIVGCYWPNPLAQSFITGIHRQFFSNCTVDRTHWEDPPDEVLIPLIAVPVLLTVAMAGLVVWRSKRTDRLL

[2] = target: T2, rat calcitonin receptor (rat, UniProt P32214 25-516); experiment: SPA competition with 125I-calcitonin, membranes of BHK cells with rat CTR (Assay VIII)
T2 construct: whole, on cells; Used as membranes prepared from BHK tk'ts 13 cells transiently transfected with the rat calcitonin receptor (Assay VIII); also called rCTR; rat calcitonin (a) receptor
T2 sequence (looked up): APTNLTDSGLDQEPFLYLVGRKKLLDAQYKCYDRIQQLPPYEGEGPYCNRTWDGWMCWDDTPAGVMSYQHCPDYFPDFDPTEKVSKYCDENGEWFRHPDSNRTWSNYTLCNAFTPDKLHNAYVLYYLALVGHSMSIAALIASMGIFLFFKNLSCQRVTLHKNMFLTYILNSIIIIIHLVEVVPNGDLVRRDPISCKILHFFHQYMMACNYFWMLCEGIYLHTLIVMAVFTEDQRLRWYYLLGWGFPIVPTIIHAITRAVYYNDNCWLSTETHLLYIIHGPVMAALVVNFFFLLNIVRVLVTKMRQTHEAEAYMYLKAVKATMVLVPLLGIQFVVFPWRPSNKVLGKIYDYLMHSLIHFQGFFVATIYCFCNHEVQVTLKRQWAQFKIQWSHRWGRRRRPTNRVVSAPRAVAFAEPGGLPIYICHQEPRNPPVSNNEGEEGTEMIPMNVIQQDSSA

[3] = target: T3, human calcitonin receptor (human, UniProt P30988 25-474); experiment: IC50 on human CTR divided by IC50 on human amylin receptor (Assays VII/V)
T3 construct: whole, on cells; Used as membranes prepared from a BHK tk'ts 13 cell line stably transfected with the human calcitonin receptor (Assay VII); also called hCTR; hCT
T3 sequence (looked up): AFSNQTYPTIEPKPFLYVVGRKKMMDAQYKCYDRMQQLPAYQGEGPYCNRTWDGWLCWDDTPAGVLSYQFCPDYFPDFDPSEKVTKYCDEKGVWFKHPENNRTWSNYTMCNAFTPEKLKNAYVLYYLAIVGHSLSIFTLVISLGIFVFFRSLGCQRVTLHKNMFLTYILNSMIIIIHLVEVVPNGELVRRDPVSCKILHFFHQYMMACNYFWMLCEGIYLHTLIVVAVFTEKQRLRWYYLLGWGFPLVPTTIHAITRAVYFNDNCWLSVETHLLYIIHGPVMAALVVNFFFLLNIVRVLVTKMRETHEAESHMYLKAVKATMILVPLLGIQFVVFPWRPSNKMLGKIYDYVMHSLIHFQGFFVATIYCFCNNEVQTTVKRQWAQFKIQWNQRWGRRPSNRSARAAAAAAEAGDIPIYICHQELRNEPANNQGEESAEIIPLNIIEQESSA
How it was run: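 Membranes (35 ng/μL final) + SPA beads, 50 mM Hepes pH 7.4 buffer with 1 mM CaCl2, 5 mM MgCl₂, 0.1% OA, 0.02% Tween20; 120 min, 25° C, shaking; centrifuged, counted; IC₅₀ by one-site binding competition.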

[4] = target: T2, rat calcitonin receptor; experiment: IC50 on rat CTR divided by IC50 on rat amylin receptor (Assays VIII/VI)

Row | Binder | IC50 [1] [nM] | IC50 [2] [nM] | Ratio hCT/hAmylin binding [3] | Ratio rCT/rAmylin binding [4]
1 | B1 | 1.08 | 51.4 | 10.8 | 47.7
2 | B2 | 0.135 | 10.3 | 109 | 76.6
3 | B3 | 0.069 | 5.63 | 36 | 81.7
4 | B4 | 0.276 | 44.8 | 32 | 162
